Values of other authors in article PMC8316261.

Molecular target: C5aR (Homo sapiens) (UniProt P21730)
UniProt P21730, sequence (P21730 whole entry): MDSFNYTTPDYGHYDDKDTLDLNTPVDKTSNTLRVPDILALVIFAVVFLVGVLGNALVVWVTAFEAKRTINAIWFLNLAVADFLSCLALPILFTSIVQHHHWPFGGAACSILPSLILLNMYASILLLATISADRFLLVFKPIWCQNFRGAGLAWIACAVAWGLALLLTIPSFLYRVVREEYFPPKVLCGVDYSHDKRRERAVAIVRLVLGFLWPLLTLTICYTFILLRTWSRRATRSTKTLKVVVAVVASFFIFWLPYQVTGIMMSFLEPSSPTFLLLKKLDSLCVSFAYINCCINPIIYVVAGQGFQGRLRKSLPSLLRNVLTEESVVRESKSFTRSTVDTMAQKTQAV

Substance: C5a C5a (from UniProt P01031)
- Kd: 1 nM
